The values below come from paper PMC4267727.

The assay deals with E2 wild-type (E2wt) scaffold protein without an HIV-1 N-terminal fusion (Geobacillus stearothermophilus). Nature of the assay: SEC; Superdex200 gel filtration of E2wt in Solubility Buffer 2.2 (1x PBS, 50 mM L-Glutamine, 50 mM NaCl, 250 mM L-Arginine), 1 ml/min.

Regarding “E2 wild-type (E2wt) scaffold protein without an HIV-1 N-terminal fusion (domain or fragment)”, the stoichiometry N was found to be 60.
